From patent US7074888B1, “Mimotopes and anti-mimotopes of human platelet glycoprotein Ib/IX” (The Research Foundation of State University of New York, priority 1995, dated 2006) come the findings set out here.

Ends that are not written are not given here.

The target in one experiment is monoclonal antibody C-34. Nature of the experiment: clone count after phage biopanning on biotinylated C-34.
In turn, MHGHRRPGLA [C34 Clone SEQ ID NO:18] returned a Frequency of 1. The same measure, in the same setting: the value for MSKKPHLGLR [C34 Clone SEQ ID NO:19] was 1; that for RVLRHWHPRT [C34 Clone SEQ ID NO:13] was 1. LSTWRYFEYV [C34 Clone SEQ ID NO:3] returned a Frequency of 14. On the same count and under the same terms, the value for GGVCKCWQCL [C34 Clone SEQ ID NO:16] was 1; that for FSHSYGSAIR [C34 Clone SEQ ID NO:17] was 1; that for WRQREYWDPV [C34 Clone SEQ ID NO:6] was 1. Still for that read-out and setting: the value for KKGRHHVTRV [C34 Clone SEQ ID NO:15] was 22; that for MNWKHWRARH [C34 Clone SEQ ID NO:10] was 1; that for FVDPGRAGRG [C34 Clone SEQ ID NO:21] was 1.

Regarding FKWREWRGKL [C34 Clone SEQ ID NO:11], the Frequency was 1.

AWNWRYREYV [C34 Clone SEQ ID NO:1] gave a Frequency of 52. EGSWRYRKGG [C34 Clone SEQ ID NO:7] displayed a Frequency of 1. For the molecule YLGWRYSEYV [C34 Clone SEQ ID NO:4], the Frequency came out at 7. On the same count and under the same terms, the value for GRRVWMLNHG [C34 Clone SEQ ID NO:14] was 2; that for TQMWRAREYL [C34 Clone SEQ ID NO:5] was 2. Still for that read-out and setting: the value for GYHWWRNWEY [C34 Clone SEQ ID NO:8] was 2; that for PDRQVRLWVR [C34 Clone SEQ ID NO:12] was 1.

Molecule KRAWWKQKWV [C34 Clone SEQ ID NO:66] returned a Frequency of 1. Still for that read-out and setting: the value for KWNWRNKKYV [C34 Clone SEQ ID NO:2] was 1; that for KGFLWRARNW [C34 Clone SEQ ID NO:9] was 1; that for TMWVELYSLK [C34 Clone SEQ ID NO:20] was 1.

The next experiment has as its target T1, synthetic biotinylated peptide mimotope having SEQ ID NO:1 (not fully specified (N-terminus)).
T1 construct: chemically synthesized (Genosys); also called biotinylated mimotope peptide
T1 peptide: AWNWRYREYV
In words: phage biopanning on biotinylated mimotope peptide SEQ ID NO:1. On the procedure: For studies directed towards discovering a peptide binding the mimotope peptide (SEQ ID NO:1: […]), two rounds of biopanning against the original decapeptide library were performed, using 1 µg of biotinylated mimotope peptide in the first round and 0.01 µg in the second round. Resulting yields were 3 ×10^-6% and 2 ×10^-3%, respectively.
As for KKWGQHRQRS [anti-mimotope clone SEQ ID NO:158], the binding result was “binds”.

As for KKVWMFSYNE [anti-mimotope clone SEQ ID NO:165], the binding result is “binds”. As for LLLVGGSELT [anti-mimotope clone SEQ ID NO:164], the binding result is on record as “binds”.

Consider WVRGHHREVR [anti-mimotope clone SEQ ID NO:172], for which the binding result is on record as “binds”. On the same count and under the same terms, the value for LSCRGCRAFV [anti-mimotope clone SEQ ID NO:166] was “binds”. Still for that read-out and setting: the value for RHRHRGFQPR [anti-mimotope clone SEQ ID NO:161] was “binds”; that for WRWMHWMPHA [anti-mimotope clone SEQ ID NO:159] was “binds”; that for RRSTWHWWHA [anti-mimotope clone SEQ ID NO:98] was “binds”. Turning to WHWLARHRTV [anti-mimotope clone SEQ ID NO:160], the binding result is “binds”.

Regarding RHVAWWRQGV [anti-mimotope clone SEQ ID NO:94], the binding result is listed as “binds”. As for AGLNHWWKHK [anti-mimotope clone SEQ ID NO:97], the binding result is “binds”. The same measure, in the same setting: the value for AKHRWWRRPV [anti-mimotope clone SEQ ID NO:95] was “binds”; that for HSPFRHVQPR [anti-mimotope clone SEQ ID NO:171] was “binds”; that for GTWDLWRKGS [anti-mimotope clone SEQ ID NO:169] was “binds”. On the same count and under the same terms, the value for RWLWPRVHKT [anti-mimotope clone SEQ ID NO:170] was “binds”.

RGWRWHKYWQ [anti-mimotope clone SEQ ID NO:162]: the binding result is “binds”. In the case of KHFMRHRHGV [anti-mimotope clone SEQ ID NO:96], the binding result is “binds”. Still for that read-out and setting: the value for VAKWRHWNRQ [anti-mimotope clone SEQ ID NO:99] was “binds”; that for KRHAWMKSRL [anti-mimotope clone SEQ ID NO:163] was “binds”. Still for that read-out and setting: the value for SVRHIWFHVK [anti-mimotope clone SEQ ID NO:168] was “binds”; that for HEGCEAQDEL [anti-mimotope clone SEQ ID NO:167] was “binds”.
